Measurements published in PMC5350311.

Legend:
[1] = target: protein phosphatase 1 (rabbit) (UniProt P62139)
[2] = target: protein phosphatase 1 (rabbit) (UniProt P62139); remark: listed apart in the source

Sequence of UniProt P62139 (P62139 whole entry): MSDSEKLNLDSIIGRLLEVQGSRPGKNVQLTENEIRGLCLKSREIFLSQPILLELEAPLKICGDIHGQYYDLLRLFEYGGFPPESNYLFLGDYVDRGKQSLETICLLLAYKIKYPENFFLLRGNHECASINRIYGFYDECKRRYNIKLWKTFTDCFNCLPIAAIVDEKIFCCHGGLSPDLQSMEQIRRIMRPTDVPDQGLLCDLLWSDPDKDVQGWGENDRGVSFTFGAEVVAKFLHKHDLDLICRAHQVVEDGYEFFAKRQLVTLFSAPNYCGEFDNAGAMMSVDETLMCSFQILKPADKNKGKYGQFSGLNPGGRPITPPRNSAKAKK

| Substance | IC50 of inhibition of PP1 activity (colorimetric protein phosphatase inhibition assay, p-nitrophenyl disodium orthophosphate, 25.0°C, pH 7.4) [1] | IC50 of inhibition of PP1 activity (inhibition curves, colorimetric protein phosphatase inhibition assay) [2] |
| --- | --- | --- |
| glutathione conjugate of MCLR (peptide) | 86.6 μg/L | 86.6 µM |
| glutathione conjugate of MCRR (peptide) | 98.7 μg/L | 98.7 µM |
